Biological target: T1, AbaSI-C3S (Acinetobacter baumannii SDF, UniProt B0VN39 1-321, C2S;C309S;C321S)
T1 sequence: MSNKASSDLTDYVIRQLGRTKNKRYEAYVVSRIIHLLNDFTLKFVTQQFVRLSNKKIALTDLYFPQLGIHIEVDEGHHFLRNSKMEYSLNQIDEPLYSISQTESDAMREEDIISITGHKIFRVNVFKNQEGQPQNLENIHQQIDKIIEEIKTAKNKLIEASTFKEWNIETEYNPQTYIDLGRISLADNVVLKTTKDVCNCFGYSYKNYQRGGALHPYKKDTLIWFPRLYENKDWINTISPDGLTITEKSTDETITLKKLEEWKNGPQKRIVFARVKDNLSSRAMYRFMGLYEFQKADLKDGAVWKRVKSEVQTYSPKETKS
Assay: X-ray crystallography

B1: 14+4 product DNA (dsDNA)
DNA 1: TGCTCGATACAATAGGCC
DNA 2: TATTGTATCGAGCA
modifications: 5hmC at top position 5
- binding result: binds

Source: publication PMC4081097
